Assay results as given in paper PMC5426288, “Crystal structure of thermostable alkylsulfatase SdsAP from Pseudomonas sp. S9” (Bioscience Reports, 2017).

Key:
[1] = target: the molecule itself; assay: crystal structure; SdsAP at 27.5 mg/ml, sitting drop vapor diffusion at 293 K, 0.1 M sodium acetate pH 4.5, 0.05 M magnesium acetate, 20% PEG 4000; two monomers in the asymmetric unit; 1.76 Å
[2] = substrate: CCCCCCCCCCCCOS(=O)(=O)O; assay: isothermal titration calorimetry, enzyme rate assay; format: biochemical, Pseudomonas sp.; settings: 25 °C, 25 mM Tris/HCl pH 8.0, 200 mM NaCl, 25 nM enzyme

B1: alkylsulfatase SdsAP from Pseudomonas sp. S9 (enzyme, UniProt F2WP51 42-674, looked up)
chain: AETAKPATDATKAANDALLKELPFDDKTSFDLAHKGFIAPLPAEPIKGEKGNMIWDPSKYGFIKEGEAAPDTTNPSLWRQSQLINISGLFEVTDGIYQVRNYDLSNMTIVEGKDGITIFDPLISQETAKAALDLYYKHRPKKPVVAVIYTHSHVDHYGGVRGVVDEADVKAGKVKIYAPLGFLEHAVAENVMAGTAMSRRASYMYGNLLPPDAKGQLGAGLGTTTSAGTVTLIPPTDIIKETGETHVIDGLTYEFMYAPGSEAPAEMLYYIKEKKALNAAEDSTHTLHNTYSLRGAKIRDPLAWSKYLNEALKLWGDDVQVMYAMHHWPVWGNKEVREQLSLQRDMYRYINDETLRLANKGYTMTEIAEQVKLPKKIATKFSNRGYYGSLNHNVKATYVLYLGWFIGNPATLWELPPADKAKRYVEMMGGADAVLKKAKEYYDKGDFRWVAEVVNHVVFAEPNNQAAKNMQADALEQLGYQAESGPWRNFYLTGAQELRNGVQQLPTPDTASPDTVKAMDLDLFFDFLAMRLKGPDVADKHITLNLDFTDLKQKYTLEMVNGVLNHTEGMQAKNADATVTLTRETLNNVMLKQTTLKDAESSGDIKIEGDKGKLEELMSYMDNFDFWFNIVTP
notes: SdsAP, type III alkylsulfatase of Pseudomonas sp; S9 (F2WP51); N-terminal signal peptide of 41 amino acids truncated; domains in the structure: 42-401 metallo-beta-lactamase like, 402-543 dimerization, 544-674 SCP-2-like; that this removes the His tag is inferred; source: E. coli BL21 (DE3), purified (IMAC, thrombin digestion, Mono Q, Superdex 200)
stoichiometry N [1]: 2
Km [2]: 74.2 ± 10 µM
kcat [2]: 4.88 ± 0.17 s⁻¹
